This passage reports migration of Plg-treated (200 nM) HUVECs in Boyden chambers: decrease by Fab of the anti-H2B mAb (20 µg/mL) against control mouse Fab (Figure 3A) and Plg-mediated migration of HUVECs in Boyden chambers: decrease by anti-H2B against Plg-treated cells with control mouse IgG (Figure 3B) results from paper PMC8961594.

The target of assay [1] is Histone 2B (H2B) on the surface of HUVECs (human (endogenous in HUVEC)) (UniProt P62807).
For assay [2] the target is unchanged. This is another data set of the same source.

Human Glu-plasminogen (ligand) registered a migration of Plg-treated (200 nM) HUVECs in Boyden chambers: decrease by Fab of the anti-H2B mAb (20 µg/mL) against control mouse Fab (Figure 3A) in assay [1] of 47%. The substance further yielded a Plg-mediated migration of HUVECs in Boyden chambers: decrease by anti-H2B against Plg-treated cells with control mouse IgG (Figure 3B) in assay [2] of 50%.
